Results from the supplement of paper PMC9112550, “Optimization of the antimicrobial peptide Bac7 by deep mutational scanning” (BMC Biology, 2022).

System: Escherichia coli TOP10
Experiment: shrunken log2 fold change of peptide-encoding DNA abundance (4.5 h post-induction vs induction); higher = less antimicrobial activity (less host growth inhibition)
Settings: time post-induction: 4.5 h; library: site-saturation at positions 5, 18, 19, 20
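Also: peptides expressed intracellularly from a pBAD plasmid library in pooled LB shake-flask culture, induced with 0.3% L-arabinose, DNA abundance read by NGS, three biological replicates, DESeq2 with apeglm shrinkage.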

Sequence | shrunken log2 fold change
RRIRRRPPRLPRPRPRPLEWPRP | 0.266
RRIRGRPPRLPRPRPRPKHTPRP | 0.743
RRIRARPPRLPRPRPRPIRNPRP | -0.179
RRIRLRPPRLPRPRPRPFGVPRP | 0.028
RRIRARPPRLPRPRPRPVHEPRP | 0.00256
RRIRLRPPRLPRPRPRPYPHPRP | -0.323
RRIRTRPPRLPRPRPRPCLFPRP | -0.16
RRIRSRPPRLPRPRPRPWVVPRP | -0.00703
RRIRKRPPRLPRPRPRPQEPPRP | 0.01
RRIRGRPPRLPRPRPRPWTPPRP | 0.75
RRIRFRPPRLPRPRPRPFIFPRP | -0.544
RRIRQRPPRLPRPRPRPTMRPRP | 0.86
RRIRHRPPRLPRPRPRPRAGPRP | 0.638
RRIRLRPPRLPRPRPRPYWIPRP | -0.00778
RRIRVRPPRLPRPRPRPEFAPRP | 0.169
RRIRHRPPRLPRPRPRPNVVPRP | 0.015
RRIRFRPPRLPRPRPRPFFRPRP | -0.213
RRIRFRPPRLPRPRPRPPTVPRP | 0.499
RRIRLRPPRLPRPRPRPWTMPRP | -0.202
RRIRWRPPRLPRPRPRPASRPRP | -0.00682
RRIRERPPRLPRPRPRPICNPRP | -1.25
RRIRQRPPRLPRPRPRPTKWPRP | 0.25
RRIRPRPPRLPRPRPRPDEEPRP | 0.0245
RRIRARPPRLPRPRPRPKYDPRP | -0.293
RRIRMRPPRLPRPRPRPGHIPRP | 0.0817

Sequence | shrunken log2 fold change
RRIRSRPPRLPRPRPRPFWAPRP | -0.00411
RRIRQRPPRLPRPRPRPFSIPRP | -0.104
RRIRPRPPRLPRPRPRPPYKPRP | -0.113
RRIRGRPPRLPRPRPRPCQDPRP | -0.233
RRIRPRPPRLPRPRPRPLQPPRP | 0.273
RRIRHRPPRLPRPRPRPQAIPRP | -0.119
RRIRFRPPRLPRPRPRPYITPRP | -0.906
RRIRYRPPRLPRPRPRPGFMPRP | -0.279
RRIRIRPPRLPRPRPRPVAQPRP | -0.103
RRIRCRPPRLPRPRPRPILEPRP | -0.247
RRIRYRPPRLPRPRPRPMRKPRP | -0.00197
RRIRVRPPRLPRPRPRPLRHPRP | 0.288
RRIRARPPRLPRPRPRPGYWPRP | 0.363
RRIRIRPPRLPRPRPRPCLWPRP | 0.0796
RRIRFRPPRLPRPRPRPSRWPRP | 0.29
RRIRNRPPRLPRPRPRPHWMPRP | -0.0835
RRIRDRPPRLPRPRPRPTPGPRP | 0.468
RRIRWRPPRLPRPRPRPYCDPRP | -0.218
RRIRCRPPRLPRPRPRPFEPPRP | -0.0564
RRIRLRPPRLPRPRPRPTFEPRP | -0.336
RRIRWRPPRLPRPRPRPHDIPRP | 0.00165
RRIRFRPPRLPRPRPRPAGYPRP | 0.00702
RRIRERPPRLPRPRPRPAWIPRP | 0.121
RRIRQRPPRLPRPRPRPSTMPRP | 0.0933
RRIRARPPRLPRPRPRPIQWPRP | 0.0649

Sequence | shrunken log2 fold change
RRIRHRPPRLPRPRPRPKVPPRP | 0.0497
RRIRMRPPRLPRPRPRPQYKPRP | -0.0699
RRIRHRPPRLPRPRPRPICGPRP | 0.00743
RRIRQRPPRLPRPRPRPNHVPRP | 0.0349
RRIRTRPPRLPRPRPRPCINPRP | -0.686
RRIRHRPPRLPRPRPRPTLFPRP | 0.267
RRIRQRPPRLPRPRPRPYRHPRP | -0.268
RRIRARPPRLPRPRPRPNEDPRP | 0.334
RRIRNRPPRLPRPRPRPWSGPRP | -0.173
RRIRNRPPRLPRPRPRPLLHPRP | -0.135
RRIRRRPPRLPRPRPRPMAHPRP | 0.0412
RRIRTRPPRLPRPRPRPLFDPRP | -0.451
RRIRLRPPRLPRPRPRPKKTPRP | 0.0684
RRIRVRPPRLPRPRPRPNGGPRP | 0.0985
RRIRFRPPRLPRPRPRPCNEPRP | -0.0116
RRIRHRPPRLPRPRPRPNNLPRP | -0.596
RRIRFRPPRLPRPRPRPMFYPRP | -1.51
RRIRMRPPRLPRPRPRPWLDPRP | 0.0568
RRIRRRPPRLPRPRPRPYTGPRP | -0.126
RRIRWRPPRLPRPRPRPSTCPRP | -0.457
RRIRRRPPRLPRPRPRPTPLPRP | 0.744
RRIRPRPPRLPRPRPRPLNSPRP | -0.262
RRIRYRPPRLPRPRPRPYGIPRP | -0.064
RRIRERPPRLPRPRPRPDKFPRP | -0.466
RRIRVRPPRLPRPRPRPETFPRP | -0.0527

Sequence | shrunken log2 fold change
RRIRVRPPRLPRPRPRPPFHPRP | 0.0102
RRIRQRPPRLPRPRPRPWSKPRP | 0.00202
RRIRVRPPRLPRPRPRPSMHPRP | -0.177
RRIRWRPPRLPRPRPRPSVGPRP | 0.149
RRIRHRPPRLPRPRPRPAFWPRP | 0.741
RRIRLRPPRLPRPRPRPNLDPRP | -0.18
RRIRKRPPRLPRPRPRPAQGPRP | 1.39
RRIRSRPPRLPRPRPRPEDEPRP | -0.0488
RRIRTRPPRLPRPRPRPICVPRP | -0.289
RRIRPRPPRLPRPRPRPISPPRP | -0.115
RRIRWRPPRLPRPRPRPIAHPRP | -0.074
RRIRERPPRLPRPRPRPHFIPRP | -0.573
RRIRMRPPRLPRPRPRPYNAPRP | -0.439
RRIRGRPPRLPRPRPRPKNSPRP | 0.252
RRIRHRPPRLPRPRPRPDMHPRP | -0.329
RRIRSRPPRLPRPRPRPFINPRP | -0.639
RRIRRRPPRLPRPRPRPGWRPRP | 0.425
RRIRRRPPRLPRPRPRPCQFPRP | -0.0684
RRIRQRPPRLPRPRPRPFFLPRP | -0.376
RRIRFRPPRLPRPRPRPELYPRP | 0.0341
RRIRMRPPRLPRPRPRPNVGPRP | -0.0241
RRIRFRPPRLPRPRPRPTELPRP | -0.161
RRIRVRPPRLPRPRPRPRWYPRP | -0.232
RRIRPRPPRLPRPRPRPLTRPRP | 0.103
RRIRHRPPRLPRPRPRPYIVPRP | -0.191

Sequence | shrunken log2 fold change
RRIRYRPPRLPRPRPRPSGMPRP | -0.0611
RRIRNRPPRLPRPRPRPICHPRP | -0.1
RRIRARPPRLPRPRPRPQMFPRP | -0.046
RRIRIRPPRLPRPRPRPFMWPRP | -0.792
RRIRLRPPRLPRPRPRPPPKPRP | 1.8
RRIRWRPPRLPRPRPRPQRPPRP | -0.00892
RRIRDRPPRLPRPRPRPDYHPRP | -0.0139
RRIRLRPPRLPRPRPRPIWSPRP | -0.256
RRIRDRPPRLPRPRPRPFCKPRP | -0.164
RRIRIRPPRLPRPRPRPQGPPRP | -0.0152
RRIRQRPPRLPRPRPRPERNPRP | 0.0526
RRIRKRPPRLPRPRPRPTQEPRP | 0.294
RRIRYRPPRLPRPRPRPMFPPRP | -0.463
RRIRTRPPRLPRPRPRPSGVPRP | 0.00112
RRIRIRPPRLPRPRPRPLILPRP | -0.895
RRIRTRPPRLPRPRPRPKTYPRP | -0.566
RRIRCRPPRLPRPRPRPRRTPRP | 0.54
RRIRNRPPRLPRPRPRPWNYPRP | -0.101
RRIRYRPPRLPRPRPRPFIDPRP | -0.018
RRIRHRPPRLPRPRPRPSCAPRP | 0.137
RRIRARPPRLPRPRPRPFLFPRP | 0.162
RRIRGRPPRLPRPRPRPDRVPRP | 0.311
RRIRLRPPRLPRPRPRPWGEPRP | -0.0317
RRIRRRPPRLPRPRPRPMCFPRP | -0.0162
RRIRDRPPRLPRPRPRPPEPPRP | 0.84

Sequence | shrunken log2 fold change
RRIRSRPPRLPRPRPRPQCPPRP | -0.172
RRIRIRPPRLPRPRPRPGGDPRP | 0.0406
RRIRVRPPRLPRPRPRPNGSPRP | 0.00532
RRIRLRPPRLPRPRPRPGAYPRP | -0.16
RRIRERPPRLPRPRPRPKAWPRP | 0.0873
RRIRDRPPRLPRPRPRPLGQPRP | 0.0401
RRIRVRPPRLPRPRPRPNPVPRP | -0.242
RRIRHRPPRLPRPRPRPLYSPRP | -0.792
RRIRNRPPRLPRPRPRPVQSPRP | 0.00489
RRIRGRPPRLPRPRPRPREAPRP | 1.31
RRIRHRPPRLPRPRPRPNIEPRP | -0.172
RRIRPRPPRLPRPRPRPKHSPRP | -0.155
RRIRGRPPRLPRPRPRPIFYPRP | 0.0354
RRIRSRPPRLPRPRPRPPSWPRP | 0.482
RRIRLRPPRLPRPRPRPGELPRP | 0.0243
RRIRVRPPRLPRPRPRPMKMPRP | -0.0573
RRIRVRPPRLPRPRPRPNAPPRP | 0.379
RRIRQRPPRLPRPRPRPYVKPRP | -0.365
RRIRCRPPRLPRPRPRPPRYPRP | 0.753
RRIRHRPPRLPRPRPRPIHAPRP | -0.173
RRIRIRPPRLPRPRPRPCISPRP | -0.32
RRIRPRPPRLPRPRPRPELYPRP | 0.0891
RRIRERPPRLPRPRPRPISKPRP | -0.575
RRIRVRPPRLPRPRPRPRMQPRP | 0.123
RRIRKRPPRLPRPRPRPSPNPRP | 1.52
